The supplement of paper PMC10567573
± gives the standard deviation.

Test: protein stability index of a GFP-peptide fusion (GPS, HEK-293T) (PSI 1-6); higher = more stable
[1] = treatment: DMSO, c terminus: a fixed tail appended
[2] = treatment: MLN4924 1 uM, 8 h, c terminus: a fixed tail appended
[3] = treatment: DMSO, c terminus: native
[4] = treatment: MLN4924 1 uM, 8 h, c terminus: native
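Also: 24-mer peptide tiles fused after GFP, lentivirally expressed, FACS-sorted into six equal bins by GFP/DsRed ratio, decoded by Illumina sequencing, PSI is the read-weighted mean bin number.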

| Sequence | protein stability index [1] | protein stability index [2] | protein stability index [3] | protein stability index [4] |
| --- | --- | --- | --- | --- |
| KTERINALELLGATFVDKKRDLLG [FEM1C] | 3.23 ± 0.1 | 3.4 ± 0.22 |  |  |
| ELFKKDPGFDRGQFHKQIAVMRGQ [PI4K2A] | 2.8 ± 0.33 | 3.03 ± 0.19 |  |  |
| HLQEYAGNFQGIRFHYDRNPGTDA [FATE1] | 3.37 ± 0.39 | 3.46 ± 0.3 |  |  |
| QKPLCASDGRTFLSRCEFQRAKCK [SMOC2] | 3.14 ± 0.52 | 3.6 ± 0.88 |  |  |
| NTVERYNPQENRWHTIAPMGTRRK [KLHL20] | 4.43 ± 0.15 | 4.59 ± 0.17 |  |  |
| HGIELHSDVVEYAKEKLESFIKNS [PCMTD1] | 3.95 ± 0.35 | 4.04 ± 0.15 |  |  |
| FDYEYDWIGKQLPTPVGAVQQDPA [CSNK1G3] | 3.63 ± 0.2 | 3.65 ± 0.44 |  |  |
| PSEEYGKILEVVGRYSVHNAGISF [MLH1] | 2.32 ± 0.36 |  |  |  |
| LTENTAENRELYIKTTLRELLVYI [PKD2L1] | 2.31 ± 0.36 | 2.45 ± 0.33 |  |  |
| ICLEMFTKPVVILPCQHNLCRKCA [TRIM63] | 2.2 ± 0.054 | 2.41 ± 0.13 |  |  |
| LGRSIVSSPQGKSGPEAARAGGWV [PKD2L1] | 3.45 ± 0.2 | 3.83 ± 0.36 |  |  |
| LLSTSLDAKDELEERLERCMSIVT [INTS3] | 3.38 ± 0.22 | 3.51 ± 0.37 |  |  |
| AAGRVCRPPGPAGTEQSRGLGHGS [CPOX] | 4.44 ± 0.25 | 4.53 ± 0.4 |  |  |
| FGCFFYVYYIFERLCAPLFRNIKQ [SOAT1] | 2.37 ± 0.2 | 2.69 ± 0.068 |  |  |
| GSGYEKLGPSRDPDPLNICVFILL [RTP4] | 3.15 ± 0.2 | 2.45 ± 0.68 |  |  |
| IYNSHLVVHQRVHSGEKPYKCSDC [ZNF232] | 2.9 ± 0.23 | 3.02 ± 0.28 |  |  |
| QRSHMGKLKEPQPQDHKPGLGAS |  |  | 3.13 ± 0.88 | 3.63 ± 0.56 |
| LAFFPFLHRLFREKSLDQLKSISA [PHTF1] | 2.46 ± 0.3 | 2.26 ± 0.35 |  |  |
| DTMLEEVENKEKDSNMPHFQTLQA [CEP70] | 4.94 ± 0.22 | 4.93 ± 0.15 |  |  |
| ERSGCALTDAVAPGNKGRGQRGNT [TCF25] | 5.22 ± 0.11 | 5.23 ± 0.13 |  |  |
| FKAYIKIYQGEDLPHPKSMLQATA [ATL3] | 2.78 ± 0.35 | 2.5 ± 0.57 |  |  |
| SRYLGDSGLDDFFLDIDTSAVEKE [SERTAD3] | 5.31 ± 0.12 | 4.9 ± 0.55 |  |  |
| RVSRKPTAAMRCMCPLYDPNRQLW [GAN] | 2.48 ± 0.67 | 2.34 ± 0.47 |  |  |

| Sequence | protein stability index [1] | protein stability index [2] | protein stability index [3] | protein stability index [4] |
| --- | --- | --- | --- | --- |
| EPLMTNKLSETFLQIYQYVPKDQR [DLC1] | 3.05 ± 0.33 | 3.47 ± 0.47 |  |  |
| PVVKKKGVKRKADTTTPTTSAITA [BRD3] | 5.03 ± 0.29 | 5.01 ± 0.19 |  |  |
| YLNEYEAEKIEYNESMKAYHNSPA [SMARCE1] | 3.95 ± 0.4 | 3.98 ± 0.31 |  |  |
| FVETRLRDLPDTPRRFTFYPCVLA [TRIM39] | 2.63 ± 0.68 | 2.16 ± 0.071 |  |  |
| KLHDFFSYLMDHFIPSSHNDRDFL [PPEF2] | 2.46 ± 0.51 | 2.53 ± 0.64 |  |  |
| ASDIMEPNLTYVYPHTRIQSLVSI [CLCN6] | 2.38 ± 0.49 | 2.34 ± 0.38 |  |  |
| EIVGNLGEGTFGKVVECLDHARGK [CLK3] | 3.81 ± 0.1 | 3.97 ± 0.29 |  |  |
| MENQVLTPHVYWAQRHRELYLRVE [HACD3] | 2.4 ± 0.31 | 2.35 ± 0.27 |  |  |
| AGWTLATLGEQGLPHQSHRQRSSL [SCNN1D] | 3.62 ± 0.21 | 3.75 ± 0.21 |  |  |
| DEQLNEFHCLWDDSFPEGPERLHA [HDAC6] | 4.55 ± 0.3 | 4.46 ± 0.35 |  |  |
| PNIQEAVEGAMHIQECVPEDLELK [CRYL1] | 5.49 ± 0.13 | 5.57 ± 0.19 |  |  |
| GNIKGIEGHSPGNLPKFCHECGTK [ZC2HC1A] | 3.82 ± 0.52 | 4.59 ± 0.085 |  |  |
| ALEEPEKMGLQERSETFLEVWGNA [DNAAF3] | 4.35 ± 0.22 | 4.32 ± 0.42 |  |  |
| RTCFSPASDGSDFTFLRPLSVQQP [PCDHGC5] | 2.77 ± 0.23 | 2.78 ± 0.22 |  |  |
| SSAPRDVQARMLSSTTILVQWKEP [PTPRD] | 2.83 ± 0.47 | 2.79 ± 0.15 |  |  |
| LDNTKFRSHEGETAYIRVKVDGPR [SRSF1] | 3.73 ± 0.34 | 3.49 ± 0.32 |  |  |
| EDSSLPSINALLQAEVLSRQITSP [HNF4A] | 4.25 ± 0.16 | 4.27 ± 0.093 |  |  |
| LQTGPLLGRPDSLELQRQREARKR [RSPH3] | 4.83 ± 0.2 | 5.08 ± 0.31 |  |  |
| DTFQKELMCFDPDTDKWIQKAPMT [KLHL13] | 4.16 ± 0.28 | 3.87 ± 0.15 |  |  |
| LINYQDDAELATRAIPELTKLLND [CTNNB1] | 3.61 ± 0.37 | 3.59 ± 0.31 |  |  |
| YSGQITLLKLEQNTCSVITTLKGH [WDFY1] | 2.82 ± 0.67 | 2.38 ± 0.36 |  |  |
| PFAFVEFEDPRDAEDAVYGRDGYD [SRSF1] | 4.76 ± 0.15 | 4.64 ± 0.2 |  |  |
| GRTHSACDALRTLAEARRLFPGRV [RSAD1] | 2.99 ± 0.29 | 3.44 ± 0.29 |  |  |

| Sequence | protein stability index [1] | protein stability index [2] | protein stability index [3] | protein stability index [4] |
| --- | --- | --- | --- | --- |
| LAIFKSGGIPALVKMLGSPVDSVL [CTNNB1] | 2.28 ± 0.36 | 2.14 ± 0.35 |  |  |
| TQHNFQEVMESEEFMLLPANQLID [KLHL20] | 4.43 ± 0.18 | 4.66 ± 0.24 |  |  |
| GARYEVTVVSVRGFEESEPLTGFL [TNXB] | 2.53 ± 0.79 | 2.38 ± 0.59 |  |  |
| REQGPREQEPELSFLKQKEQLEAE [PBXIP1] | 5.5 ± 0.35 | 5.58 ± 0.33 |  |  |
| ECSNIPLSQPQQGEAMLANFKPRG [GAN] | 3.5 ± 0.9 | 3.97 ± 0.34 |  |  |
| VRVLESLLVSLVTTVVVFVASMVL [CLCN6] | 3.13 ± 0.4 | 3.3 ± 0.34 |  |  |
| RGENLEHLRNKTEDLEATSEHFKT [VAMP8] | 5.43 ± 0.35 | 5.29 ± 0.12 |  |  |
| GKVAVGQDDLTVVLNEEGICTQKC [VPS39] | 4.91 ± 0.22 | 4.79 ± 0.28 |  |  |
| GDRAGDASKDILLGPWDMVLAQG [SCARA5] |  |  | 2.76 ± 0.64 | 2.69 ± 0.54 |
| YVHDPECVATTGDITVSVSTSFLP [FBXO3] | 2.46 ± 0.26 | 2.95 ± 0.15 |  |  |
| VELLHNTSYTRQACLVSCFQQLMV [SCNN1D] | 2.39 ± 0.78 | 2.5 ± 0.94 |  |  |
| EEWLLVGTKQGHLLLYRIRKDVGC [VPS39] | 3.08 ± 1.3 | 2.48 ± 0.5 |  |  |
| RLAADDFRTKFETEQALRLSVEAD [KRT17] | 4.8 ± 0.3 | 4.66 ± 0.15 |  |  |
| PQHVSSDKEVRAASTEADKRLSRF [NLN] | 5.3 ± 0.18 | 5.1 ± 0.22 |  |  |
| MKVEAKSHLQWQESRLKRSNPLAR [ZSCAN9] | 3.35 ± 0.33 | 3.67 ± 0.19 |  |  |
| RCINDPYLEVLETMDNKKGRRYEA [CLCN6] | 3.82 ± 0.15 | 4.03 ± 0.32 |  |  |
| KNTEVSSMECEKNLYWICNKPYK [CD69] |  |  | 2.97 ± 0.2 | 2.86 ± 0.61 |
| TLPVLEASSWKKQVSHDFLETRFK [FBXO34] | 3.16 ± 0.66 | 3.1 ± 0.41 |  |  |
| REITGVQAQPGEATSGPPGIQPGQ [PALM] | 5.37 ± 0.26 | 5.23 ± 0.2 |  |  |
| EERERKRRKEEEVQQQKLAEERRR [FAF2] | 5.34 ± 0.34 | 5.36 ± 0.25 |  |  |
| NIQANNCFSTGLSRRVLLTNVVTG [DCAF4] | 2.54 ± 0.26 | 2.63 ± 0.2 |  |  |
| KQLRQVTKEEGLALAREFSCPFFE [RIT1] | 3.27 ± 0.29 | 3.49 ± 0.33 |  |  |
| NLYEEGRTAFLWRGNVVLRAQMIR [TRIM43] | 2.22 ± 0.2 | 2.06 ± 0.21 |  |  |

| Sequence | protein stability index [1] | protein stability index [2] | protein stability index [3] | protein stability index [4] |
| --- | --- | --- | --- | --- |
| YRQSSFPHCSDLMPSGSEEKILRE [KCNA4] | 4.25 ± 0.29 | 4.26 ± 0.14 |  |  |
| AQQLLREFEEATGEAGWGAGEGRL [FOXJ1] | 4.74 ± 0.16 | 4.66 ± 0.34 |  |  |
| GVGAYGTVYKARDPHSGHFVALKS [CDK4] | 2.89 ± 0.12 | 3.05 ± 0.32 |  |  |
| RNGLHLPEQVQNEIKSMKKRMSEL [NLN] | 4.11 ± 0.33 | 4.4 ± 0.31 |  |  |
| REVAKELGLPYYETSVFDQFGIKD [RHOBTB1] | 3.18 ± 0.44 | 3.27 ± 0.29 |  |  |
| TACSLPLCACLLGQKMLRHCGRT [PXN] |  |  | 3.03 ± 0.76 | 2.28 ± 0.4 |
| RADCASESACSSDSLDEARSSGSE [PWWP2B] | 5.42 ± 0.3 | 5.53 ± 0.26 |  |  |
| LFHRLDEDWDSALFAELGYFTDTD [ATF6] | 2.91 ± 0.48 | 3.02 ± 0.26 |  |  |
| HTCLMISCYKGHREIARYLLEQGA [FEM1A] | 2.46 ± 0.5 | 2.38 ± 0.35 |  |  |
| TWDGRPLTMAATFDDCLYALCVVD [GFOD1] | 2.38 ± 0.46 | 2.35 ± 0.61 |  |  |
| LVYHPVQLSTPHAVGVLLLGLVGY [DHCR7] | 3.5 ± 0.77 | 3.08 ± 0.23 |  |  |
| SDRRKEKDPKAGDSKSGGSGSESD [DVL3] | 5.69 ± 0.32 | 5.55 ± 0.15 |  |  |
| LAKEIRVKAEPFIKWLKEAEEESS [EIF5] | 3.33 ± 0.2 | 3.9 ± 0.52 |  |  |
| RVYVSGLMKGGADLFVENMPGFPD [APMAP] | 2.56 ± 0.34 | 2.7 ± 0.35 |  |  |
| NLAAMTPHDFIEHFLSKMPEAEEN [CCND1] | 4.49 ± 0.075 | 4.49 ± 0.04 |  |  |
| RFQDPAAASISDGDCDAREEKQRE [FAM219A] | 5.5 ± 0.4 | 5.46 ± 0.32 |  |  |
| RAKVKTDDIARIYQPKRYALSPKT [FAM98B] | 3.4 ± 0.26 | 3.5 ± 0.13 |  |  |
| ERICSEEERAKAKHLARQLEEKDR [CHCHD3] | 5.4 ± 0.13 | 5.17 ± 0.35 |  |  |
| IKMILKMVQLDSIEDLEVTCTWKL [PRAME] | 2.89 ± 0.29 | 2.99 ± 0.42 |  |  |
| LEIELQSQLSMKAGLENTVAETEC [KRT13] | 5.02 ± 0.43 | 5.03 ± 0.11 |  |  |
